Measured values from the nanobody polyreactivity screen of Harvey et al. (2022).

Assay: yeast display, Sf9 membrane polyspecificity reagent, FACS + sequencing; frameworks hold sequencing errors
How it was run: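 Galactose induction of a Saccharomyces cerevisiae BJ5465 synthetic nanobody display library ran 36–48 hours. The cells were then stained for 1 hour at 4 °C with 10% biotinylated, detergent-solubilized Sf9 membrane reagent, pulled down on streptavidin microbeads and FACS-sorted into low and high (top ~1%) gates on expression and reagent-binding fluorescence. Labels for polyreactivity follow the gate of origin.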

## QVQLVESGGGLVQAGGSLRLSCAASGSIFKLNAMGWYRQAPGKERELVAAISRGGRTYYADSVKGRFTISRDNAKNTVYLQMNSLKPEDTAVYYCAADASSQIWYYPRDDYWGQGTLVTVSS
  polyreactivity (PSR sort gate): low polyreactivity

## QVQLVESGGGLVQAGGSLRLSCAASGSIFKNYAMGWYRQAPGKERELVAAITSGGRTYYADSVKGRFTISRDNAKNTVYLQMNSLKPEDTAVYYCAALGRYGYYYWGQGTQVTVSS
  polyreactivity (PSR sort gate): high polyreactivity

## QVQLVESGGGLVQAGGSLRLSCAASGSIFKNYAMGWYRQAPGKERELVATISSGDSTYYADSVKGRFTISRDNAKNTVYLQMNSLKPEDTAVYYCNTTEHNYVSSFEYGYWGQGTHVTVSS
  polyreactivity (PSR sort gate): low polyreactivity

## QVQLVESGGGLVQAGGSLRLSCAASGSIFKPYSMGWYRQAPGKERELVAAISTRRSSTYYADSVKGRFTFSRDNAKNTVYLQMNSLIQEDTAVYYCAKRRYLWGYEYDSWGQGTQVNVSS
  polyreactivity (PSR sort gate): high polyreactivity

## QVQLVESGGGLVQAGGSLRLSCAASGSIFKRNAMGWYRQAPGKERELVASISSGGSTHYADSVKGRFTISRDNAKNTVYFQMNSLKPEDTAVYYCAATSIRWSVGSFRRDYWGQGTQVTVSS
  polyreactivity (PSR sort gate): low polyreactivity

## QVQLVESGGGLVQAGGSLRLSCAASGSIFKRNAMGWYRQAPGKERELVASISSGGSTHYADSVKGRFTNSRDNAKNTVYLQMNSLKPEDTAVYYCAATSIRWSVGSFRRDYWGQVTQVTVSS
  polyreactivity (PSR sort gate): low polyreactivity

## QVQLVESGGGLVQAGGSLRLSCAASGSIFKSYAMGWYRQAPGKERELVAAISGSGGRTYYADSVKGRFTISRDNAKNTVYLQMNSLKPEDTAVYYCNALASIRTHTGYAYSPPYDYWGQGTQVTVSS
  polyreactivity (PSR sort gate): high polyreactivity

## QVQLVESGGGLVQAGGSLRLSCAASGSIFKSYAMGWYRQAPGKERELVAAITRSGGSTYYADSVKGRFTISRDNAKNTVYLQMNSLKPEDTAVYYCAKKAPYWSYYYWGQGTQVTVSS
  polyreactivity (PSR sort gate): high polyreactivity

## QVQLVESGGGLVQAGGSLRLSCAASGSIFKTNAMGWYRQAPGKERELVAAIYRSDGTDYADSVKGRFTISRDNAKNTVYLQMNSLKPEDTAVYYCNADKWSVVGYVLGFYRDDYWGQGSQVTVSS
  polyreactivity (PSR sort gate): low polyreactivity

## QVQLVESGGGLVQAGGSLRLSCAASGSIFKTNAMGWYRQAPGKERELVAGISNGGSTNYADSVKGRFTISRDNAKNTVYLQMNSLKPEDTAVYYCAAPYTSQTIPDYVRYFIEYDYWGQGTQVTVSS
  polyreactivity (PSR sort gate): low polyreactivity

## QVQLVESGGGLVQAGGSLRLSCAASGSIFKVNVMGWSRQAPGKERELVAAISRSGGNTYYADSVKGRFTISRDNAKNTVYLQMIILKPEDTGVYYCANDRRYYKAYDYWGQGTRVTVSS
  polyreactivity (PSR sort gate): low polyreactivity

## QVQLVESGGGLVQAGGSLRLSCAASGSIFKWYAMGWYRQAHGKERELVAAITNGGGSTYYADSVKGRFTISRDNAKNTVYLQMNSLKPEDTAVYYCNADSYYYPYDYWGQGTQVTVSS
  polyreactivity (PSR sort gate): low polyreactivity

## QVQLVESGGGLVQAGGSLRLSCAASGSIFKYNAMGWYRKAPGKERELVAAISWSGASTSYADSVKGRFTISRDNAKNTVYLQMNSLKPEDTAVYYCNAYYWYYSTRKYYYWGQGTKVTVSS
  polyreactivity (PSR sort gate): high polyreactivity

## QVQLVESGGGLVQAGGSLRLSCAASGSIFKYNAMGWYRQAPGKERELVAAISNDGGRTYYADSVKGRFTISRDNAKNTVYLQMNSLKPEDTPVYDGNVVRVRYYWWEFDYWGQGTQVTVSS
  polyreactivity (PSR sort gate): high polyreactivity

## QVQLVESGGGLVQAGGSLRLSCAASGSIFKYYAMAWYRQSPGNERELVAAISSGGRTYYADSVKGRFTISRDNAKNTVYLQMNSLKPEDTAVYYCNRVGTYHSYDYWGQGTQVTVSS
  polyreactivity (PSR sort gate): high polyreactivity

## QVQLVESGGGLVQAGGSLRLSCAASGSIFKYYAMGWYIQAPGKERELVAAITYSGGSTYYADSVKGRFTISRDNAKNTVYLQMNSLKPEDTAVYYCNKVYKSYYWGGYEWGQATQVTVSS
  polyreactivity (PSR sort gate): high polyreactivity

## QVQLVESGGGLVQAGGSLRLSCAASGSIFKYYAMGWYRQAPGKERELVAAISSNGGRTYYADSVKGRFTISRDNAKNTVYLQMNSLKPEDTAVYYCNVVVKGAWDYYPYDYWGQGTQVTVSS
  polyreactivity (PSR sort gate): high polyreactivity

## QVQLVESGGGLVQAGGSLRLSCAASGSIFKYYAMGWYRQAPGKERELVAAISSSGNTYYADSVKGRFTISRDNAKNTVYLQMNSLKPEDTAVYYCNAYRPGEMDYWGQGTQVTVSS
  polyreactivity (PSR sort gate): high polyreactivity

## QVQLVESGGGLVQAGGSLRLSCAASGSIFKYYAMGWYRQARGKERELVAVITSGGSTYYADSVKGLFTISRDNAKNTVYLQMNSLKPEDTAVYYCAAGVRAYNWGEYDYWGQGTQVTVSS
  polyreactivity (PSR sort gate): low polyreactivity

## QVQLVESGGGLVQAGGSLRLSCAASGSIFLANAMGWYRQAPGKERELVAGISSSVTTNYADSVKGRFTISRDNAKNTVYLQMNSLKPEDTAVYYCNTVLRVQFYWGQGTQVSVSS
  polyreactivity (PSR sort gate): low polyreactivity

## QVQLVESGGGLVQAGGSLRLSCAASGSIFLAYAMGWYRQAPGKEMELVATISVSGTTTYYADSVKGRFTISRDNAKNTVYLQMNSLKPEDTAVYYCAADQQDGLWDYQDWYDYWGQGTQVTVSS
  polyreactivity (PSR sort gate): low polyreactivity

## QVQLVESGGGLVQAGGSLRLSCAASGSIFLDNAMGWYRQAPGKEREFVATISWRTGRTYYADSVKGRFTISRDNAKNTVYLHMNSLKPEDTAVYYCAVDTVRNHRMDYWGQGTQVTVSS
  polyreactivity (PSR sort gate): low polyreactivity

## QVQLVESGGGLVQAGGSLRLSCAASGSIFLDNAMGWYRQAPGKERELVAAISWSAGSTYYADSVKGRFTISRDNAKNTVYLQMNSLKPEDTAVYYCAAESYPGWYWDDYWGQGTQVTVSS
  polyreactivity (PSR sort gate): high polyreactivity

## QVQLVESGGGLVQAGGSLRLSCAASGSIFLFNAMGWNRQAPGKERELVAANTSSGTRTYYADSVKGRFTISRDNAKNTVYLQMNSMKPEDTAVYYCNAVGPVDSYHRYYYWGQGTQVTVSS
  polyreactivity (PSR sort gate): low polyreactivity

## QVQLVESGGGLVQAGGSLRLSCAASGSIFLFNAMGWYRQAPGKERELVAAINRDDSTYYADSVKGRFTISRDNAKNTVYLQMNSLKPEDTAVYYCAAPVLHASYGYGYWGQGTQGTVSS
  polyreactivity (PSR sort gate): low polyreactivity

## QVQLVESGGGLVQAGGSLRLSCAASGSIFLGNAMGWSRQAPGKERELVAAISSITGRTYYADSVKGRFTISRDNAKNTVYLQMNSLKPEDTAVYYCNKVKRSFIVNTDDYWGQGTQVTVSS
  polyreactivity (PSR sort gate): high polyreactivity

## QVQLVESGGGLVQAGGSLRLSCAASGSIFLGNAMGWYRQAPGKERELVAAITSRGGRTYYADSVKGRFTISRDNAKNTVYLLMNSLKPEDTAVYYFAVLGFGALDFDSWGQGTEVTVSS
  polyreactivity (PSR sort gate): high polyreactivity

## QVQLVESGGGLVQAGGSLRLSCAASGSIFLGNAMGWYSPAPGKERELVAAISYSGGSTYYADSVKGRFTISRDNAKNTVYLQMNSLKPEDTDVYYCAADRSSQFDLDYWGQGTRVTVSS
  polyreactivity (PSR sort gate): low polyreactivity

## QVQLVESGGGLVQAGGSLRLSCAASGSIFLGSVMVWYRQAPGKERELVATITGNGDGTYYADSVKGRFTISRDKAKNTVYLQMNSLKPADTAVYYCAADRSGPGYDYWGQGTQVTVSS
  polyreactivity (PSR sort gate): low polyreactivity

## QVQLVESGGGLVQAGGSLRLSCAASGSIFLKYTMGWYRQAPGKERELVAAITSGGTTNYADSVKGRFTISRDNAKNTVYLQMNSLKPEDTAVYYCARDSYQLGLIRDPLEYDYWGQGTQVTVSS
  polyreactivity (PSR sort gate): low polyreactivity

## QVQLVESGGGLVQAGGSLRLSCAASGSIFLKYVMGWYRQATGKEMELVAAISSAGGTYYADSVKGRFTISRDNEKYTVYLQMICLKPEDTAVYYCGRRPYRGSYAYDYWGQGSQVTVSS
  polyreactivity (PSR sort gate): low polyreactivity

## QVQLVESGGGLVQAGGSLRLSCAASGSIFLLNAMGWYRQAPGKERELVAVISSGTGSTYYADSVKGRFTISRDTAKNTVYLQMNSLKPEDTAVYYCAAERDAVLFFVGPYYITLDYDYWGQGTQVTVSS
  polyreactivity (PSR sort gate): low polyreactivity

## QVQLVESGGGLVQAGGSLRLSCAASGSIFLNNAMGWYSQAPGKERELVAAITRNVGSTYYADSVKGRFTISRDNAKNTVYLQMNSMKPEATAVYYCAADRRRRYDYWGQGTQVTVSS
  polyreactivity (PSR sort gate): low polyreactivity

## QVQLVESGGGLVQAGGSLRLSCAASGSIFLPYAMGWYRQAPGKERELVATIRGRGGSTYYADSVKGRFTISRDNAKITVYLLMNSPKPEDTAVYYCAAKNGDRYARGYWGQGTQVTVSS
  polyreactivity (PSR sort gate): high polyreactivity

## QVQLVESGGGLVQAGGSLRLSCAASGSIFLQYAMGWYRQAPGKERELVAAISWSGGSTYYADSVKGRFTISRDNAKNTVYVQMNSLKPEDTAVYYCAAPITPYRHYRMDYWGQGTQVTVSS
  polyreactivity (PSR sort gate): low polyreactivity

## QVQLVESGGGLVQAGGSLRLSCAASGSIFLQYTMGWYRQAPGKERELVAAITESDGSTYYADSVKGRFTISRDNAKNTVYLQMNSLKPEDTAVYYCAADVVYFKYWDKYDYWGQGTQVTVSS
  polyreactivity (PSR sort gate): low polyreactivity

## QVQLVESGGGLVQAGGSLRLSCAASGSIFLRNAMGWYRQAPGKERELVAAITNSSGSTYYADSVKGRFTISRDNAKNTVYLQMNSLKPEDTAVYYCAATSRSSRRYYYWGQGTQVTVSS
  polyreactivity (PSR sort gate): high polyreactivity

## QVQLVESGGGLVQAGGSLRLSCAASGSIFLRYAMGWYRQAPGKERELVAAITTGGGSTYYADSVKGRFTISRDNAKNTDYLQMNSLKPVDTAVYYCAKRAQYHWRGRDDYSYYYWGQGTQVTVSS
  polyreactivity (PSR sort gate): low polyreactivity

## QVQLVESGGGLVQAGGSLRLSCAASGSIFLSNAMGWYRQAPGKEREMVAIRKSTGSTYYADSVKGRFTISRDNAKNTVYLQMYSLKPEDTAVYYCNAGGWNAYRYRAYDYGGQGTQVTVSS
  polyreactivity (PSR sort gate): high polyreactivity

## QVQLVESGGGLVQAGGSLRLSCAASGSIFLVNAKGCYRQAPGKARELVAAITYGGDSTYYADSVKGRFTISRDNAKNTVYLQMNSLKPEDTAVYYCAADAWVGWHDEYDYWGQGTQVTVSS
  polyreactivity (PSR sort gate): low polyreactivity

## QVQLVESGGGLVQAGGSLRLSCAASGSIFLVNAMGWSRQAPGKERELVASITWRGGRTYYAASVKGRFTISRDNAKNTVYLQMNSLKPEDTAVYYCAARNYRTGERLRYDYWGQGTQVTVSS
  polyreactivity (PSR sort gate): low polyreactivity

## QVQLVESGGGLVQAGGSLRLSCAASGSIFLVNAMGWYRQAPGKERELVAAIRGSGGSTYYADSVKGRFTISRDNAKNTVYLQMNSLKPEDTAVYYCAADIWRLAYDYWGQGTQVTVSS
  polyreactivity (PSR sort gate): low polyreactivity

## QVQLVESGGGLVQAGGSLRLSCAASGSIFLWNAMGGYRQAPGKERDLVAAISSSGGSTYYADSVKGRFTISRDNAKNTVYLQMNSLKPEDTAVYYCAAVSRSYYNSYNYWGQGTQVTVSS
  polyreactivity (PSR sort gate): high polyreactivity
